# In patent US20140274782A1, “AFFINITY REAGENTS AND METHODS FOR DETECTION, PURIFICATION, AND PROTEOMIC ANALYSIS OF METHYLATED PROTEINS” (The Board of Trustees of the Leland Stanford Junior …, priority 2013, published 2014):
# T1: G9a and GLP (Homo sapiens, UniProt Q96KQ7+Q9H9B1)
# T1 sequence (Q96KQ7 2-1210 limits assumed): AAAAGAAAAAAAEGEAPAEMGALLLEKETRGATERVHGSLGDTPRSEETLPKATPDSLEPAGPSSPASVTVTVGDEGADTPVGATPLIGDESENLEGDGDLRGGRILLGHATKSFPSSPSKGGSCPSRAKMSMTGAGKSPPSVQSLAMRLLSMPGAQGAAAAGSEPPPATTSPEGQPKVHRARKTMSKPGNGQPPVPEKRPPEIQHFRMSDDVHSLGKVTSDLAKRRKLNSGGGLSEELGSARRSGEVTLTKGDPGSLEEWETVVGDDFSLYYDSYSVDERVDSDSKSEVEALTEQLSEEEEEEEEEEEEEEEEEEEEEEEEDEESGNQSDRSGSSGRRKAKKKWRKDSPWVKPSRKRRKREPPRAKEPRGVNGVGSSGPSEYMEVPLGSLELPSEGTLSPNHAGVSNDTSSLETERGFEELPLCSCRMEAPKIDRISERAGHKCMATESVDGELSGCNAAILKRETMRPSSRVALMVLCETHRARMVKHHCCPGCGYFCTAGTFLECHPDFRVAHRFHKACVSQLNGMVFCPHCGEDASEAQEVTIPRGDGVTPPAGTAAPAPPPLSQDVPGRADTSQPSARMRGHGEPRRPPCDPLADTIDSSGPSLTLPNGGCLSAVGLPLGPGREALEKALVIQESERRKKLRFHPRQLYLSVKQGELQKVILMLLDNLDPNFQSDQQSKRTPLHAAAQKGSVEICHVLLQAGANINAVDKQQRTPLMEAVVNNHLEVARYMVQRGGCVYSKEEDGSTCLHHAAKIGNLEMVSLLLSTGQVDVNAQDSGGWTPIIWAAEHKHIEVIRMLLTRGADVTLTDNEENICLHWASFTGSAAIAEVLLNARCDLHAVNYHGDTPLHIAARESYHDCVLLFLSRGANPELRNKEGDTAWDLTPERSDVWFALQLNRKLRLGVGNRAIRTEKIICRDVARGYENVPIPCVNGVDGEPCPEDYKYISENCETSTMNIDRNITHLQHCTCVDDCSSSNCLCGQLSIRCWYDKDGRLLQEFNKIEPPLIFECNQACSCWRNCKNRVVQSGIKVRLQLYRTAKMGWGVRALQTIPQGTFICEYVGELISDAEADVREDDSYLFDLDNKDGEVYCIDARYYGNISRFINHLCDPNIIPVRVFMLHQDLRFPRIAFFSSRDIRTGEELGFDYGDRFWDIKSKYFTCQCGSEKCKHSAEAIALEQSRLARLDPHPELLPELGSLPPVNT
# T1 sequence (Q9H9B1 2-1298 limits assumed): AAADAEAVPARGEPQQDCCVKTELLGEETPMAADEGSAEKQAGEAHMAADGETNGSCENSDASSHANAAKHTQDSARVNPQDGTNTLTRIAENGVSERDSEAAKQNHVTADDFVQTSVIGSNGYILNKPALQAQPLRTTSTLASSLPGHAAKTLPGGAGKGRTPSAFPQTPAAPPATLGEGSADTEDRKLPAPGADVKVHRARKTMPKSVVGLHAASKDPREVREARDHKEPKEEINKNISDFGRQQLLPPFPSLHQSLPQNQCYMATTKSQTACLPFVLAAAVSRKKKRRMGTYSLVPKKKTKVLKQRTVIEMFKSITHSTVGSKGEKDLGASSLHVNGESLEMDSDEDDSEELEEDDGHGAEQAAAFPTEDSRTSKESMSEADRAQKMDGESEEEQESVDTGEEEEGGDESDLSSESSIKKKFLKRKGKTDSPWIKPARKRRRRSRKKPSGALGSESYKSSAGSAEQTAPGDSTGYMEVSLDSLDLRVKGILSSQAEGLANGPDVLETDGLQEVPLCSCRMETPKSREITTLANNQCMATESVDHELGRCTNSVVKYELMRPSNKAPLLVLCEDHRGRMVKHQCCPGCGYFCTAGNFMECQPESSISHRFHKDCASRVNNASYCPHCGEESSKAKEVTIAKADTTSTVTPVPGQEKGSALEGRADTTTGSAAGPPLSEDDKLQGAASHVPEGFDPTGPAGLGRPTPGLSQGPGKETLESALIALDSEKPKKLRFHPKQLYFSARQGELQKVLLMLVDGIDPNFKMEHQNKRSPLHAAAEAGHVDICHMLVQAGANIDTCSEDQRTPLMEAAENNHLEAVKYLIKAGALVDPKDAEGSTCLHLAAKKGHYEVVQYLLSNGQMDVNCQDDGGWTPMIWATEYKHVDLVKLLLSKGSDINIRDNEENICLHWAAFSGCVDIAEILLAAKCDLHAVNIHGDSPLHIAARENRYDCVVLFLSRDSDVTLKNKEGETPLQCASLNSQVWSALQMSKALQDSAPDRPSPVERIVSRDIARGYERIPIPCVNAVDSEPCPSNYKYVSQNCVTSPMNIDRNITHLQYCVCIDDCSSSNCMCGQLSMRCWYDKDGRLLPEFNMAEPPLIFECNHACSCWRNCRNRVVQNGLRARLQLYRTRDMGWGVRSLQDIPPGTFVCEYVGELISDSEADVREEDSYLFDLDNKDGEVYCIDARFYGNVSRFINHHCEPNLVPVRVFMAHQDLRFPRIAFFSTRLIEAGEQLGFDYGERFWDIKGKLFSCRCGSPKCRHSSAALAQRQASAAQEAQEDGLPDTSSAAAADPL
# B1: HNRPDL (protein, UniProt O14979 1-420, looked up)
# Heterogeneous nuclear …: MEVPPRLSHVPPPLFPSAPATLASRSLSHWRPRPPRQLAPLLPSLAPSSARQGARRAQRHVTAQQPSRLAGGAAIKGGRRRRPDLFRRHFKSSSIQRSAAAAAATRTARQHPPADSSVTMEDMNEYSNIEEFAEGSKINASKNQQDDGKMFIGGLSWDTSKKDLTEYLSRFGEVVDCTIKTDPVTGRSRGFGFVLFKDAASVDKVLELKEHKLDGKLIDPKRAKALKGKEPPKKVFVGGLSPDTSEEQIKEYFGAFGEIENIELPMDTKTNERRGFCFITYTDEEPVKKLLESRYHQIGSGKCEIKVAQPKEVYRQQQQQQKGGRGAAAGGRGGTRGRGRGQGQNWNQGFNNYYDQGYGNYNSAYGGDQNYSGYGGYDYTGYNYGNYGYGQGYADYSGQQSTYGKASRGGGNHQNNYQPY
# B2: CRKL (protein, UniProt P46109 1-303, looked up)
# Crk-like protein: MSSARFDSSDRSAWYMGPVSRQEAQTRLQGQRHGMFLVRDSSTCPGDYVLSVSENSRVSHYIINSLPNRRFKIGDQEFDHLPALLEFYKIHYLDTTTLIEPAPRYPSPPMGSVSAPNLPTAEDNLEYVRTLYDFPGNDAEDLPFKKGEILVIIEKPEEQWWSARNKDGRVGMIPVPYVEKLVRSSPHGKHGNRNSNSYGIPEPAHAYAQPQTTTPLPAVSGSPGAAITPLPSTQNGPVFAKAIQKRVPCAYDKTALALEVGDIVKVTRMNINGQWEGEVNGRKGLFPFTHVKIFDPQNPDENE
# B3: DDX5 (protein, UniProt P17844 1-614, looked up)
# Probable ATP-dependent RNA …: MSGYSSDRDRGRDRGFGAPRFGGSRAGPLSGKKFGNPGEKLVKKKWNLDELPKFEKNFYQEHPDLARRTAQEVETYRRSKEITVRGHNCPKPVLNFYEANFPANVMDVIARQNFTEPTAIQAQGWPVALSGLDMVGVAQTGSGKTLSYLLPAIVHINHQPFLERGDGPICLVLAPTRELAQQVQQVAAEYCRACRLKSTCIYGGAPKGPQIRDLERGVEICIATPGRLIDFLECGKTNLRRTTYLVLDEADRMLDMGFEPQIRKIVDQIRPDRQTLMWSATWPKEVRQLAEDFLKDYIHINIGALELSANHNILQIVDVCHDVEKDEKLIRLMEEIMSEKENKTIVFVETKRRCDELTRKMRRDGWPAMGIHGDKSQQERDWVLNEFKHGKAPILIATDVASRGLDVEDVKFVINYDYPNSSEDYIHRIGRTARSTKTGTAYTFFTPNNIKQVSDLISVLREANQAINPKLLQLVEDRGSGRSRGRGGMKDDRRDRYSAGKRGGFNTFRDRENYDRGYSSLLKRDFGAKTQNGVYSAANYTNGSFGSNFVSAGIQTSFRTGNPTGTYQNGYDSTQQYGSNVPNMHNGMNQQAYAYPATAAAPMIGYPMPTGYSQ
# B4: SEC23B (protein, UniProt Q15437 2-767, looked up)
# Protein transport protein …: ATYLEFIQQNEERDGVRFSWNVWPSSRLEATRMVVPLACLLTPLKERPDLPPVQYEPVLCSRPTCKAVLNPLCQVDYRAKLWACNFCFQRNQFPPAYGGISEVNQPAELMPQFSTIEYVIQRGAQSPLIFLYVVDTCLEEDDLQALKESLQMSLSLLPPDALVGLITFGRMVQVHELSCEGISKSYVFRGTKDLTAKQIQDMLGLTKPAMPMQQARPAQPQEHPFASSRFLQPVHKIDMNLTDLLGELQRDPWPVTQGKRPLRSTGVALSIAVGLLEGTFPNTGARIMLFTGGPPTQGPGMVVGDELKIPIRSWHDIEKDNARFMKKATKHYEMLANRTAANGHCIDIYACALDQTGLLEMKCCANLTGGYMVMGDSFNTSLFKQTFQRIFTKDFNGDFRMAFGATLDVKTSRELKIAGAIGPCVSLNVKGPCVSENELGVGGTSQWKICGLDPTSTLGIYFEVVNQHNTPIPQGGRGAIQFVTHYQHSSTQRRIRVTTIARNWADVQSQLRHIEAAFDQEAAAVLMARLGVFRAESEEGPDVLRWLDRQLIRLCQKFGQYNKEDPTSFRLSDSFSLYPQFMFHLRRSPFLQVFNNSPDESSYYRHHFARQDLTQSLIMIQPILYSYSFHGPPEPVLLDSSSILADRILLMDTFFQIVIYLGETIAQWRKAGYQDMPEYENFKHLLQAPLDDAQEILQARFPMPRYINTEHGGSQARFLLSKVNPSQTHNNLYAWGQETGAPILTDDVSLQVFMDHLKKLAVSSAC
# System: 3×MBT domain of L3MBTL1
# Experiment: Triple SILAC pull-down, 3xMBT/3xMBTD355N ratio (cytoplasmic, nuclear and chromatin fractions of 293T cells);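 note: proteins quantified with MaxQuant, requiring at least two unique peptides and quantification in both label directions, normalized to the mean of proteins from a digested loading control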
# Format: binding, human
# Settings: SILAC ratio, pull-down 3xMBT vs 3xMBTD355N; experiment with UNC0638 in heavy SILAC media
row,Molecule,3xMBT/D355N UNC Heavy [log base 2]
1,B1,2.81
2,B2,1.16
3,B3,3.00
4,B4,3.24

# Same assay, conditions: SILAC ratio, pull-down 3xMBT vs 3xMBTD355N; experiment with UNC0638 in light SILAC media
row,Molecule,3xMBT/D355N UNC Light [log base 2]
1,B1,3.02
2,B2,1.59
3,B3,2.92
4,B4,3.16

# Target: T1, G9a and GLP
# Experiment: Triple SILAC pull-down after UNC0638 treatment of 293T cells, DMSO/UNC0638 ratio of protein captured by 3×MBT;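 note: mass spectrometry (Q-Exactive) SILAC quantitation, DMSO/UNC0638 ratio computed after subtracting 3×MBTD355N mutant pull-down background, only proteins with at least twofold 3×MBT over mutant signal considered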
# Format: cell-based
# Set-up: cells were treated for 24 hours with UNC0638 at 2.5 μM or DMSO vehicle control; endogenous in cells; host or cells: HEK 293T
# Settings: SILAC ratio DMSO/UNC0638 of protein pulled down with 3xMBT; UNC0638 in heavy SILAC media
row,Relative to UNC0638 UNC Heavy [log base 2],Molecule
1,0.16,B1
2,0.37,B2
3,0.31,B3
4,0.17,B4

# Same assay, conditions: SILAC ratio DMSO/UNC0638 of protein pulled down with 3xMBT; UNC0638 in light SILAC media
row,Relative to UNC0638 UNC Light [log base 2],Molecule
1,0.24,B1
2,0.03,B2
3,0.10,B3
4,0.24,B4

# Same assay, conditions: average of UNC Light and UNC Heavy experiments
row,Relative to UNC0638 Average [log base 2],Molecule
1,0.20,B1
2,0.20,B2
3,0.20,B3
4,0.21,B4
